In publication PMC11741422 (bioRxiv, 2025):
Where “and” joins values, the source holds several entries; their conditions need not be identical. Equal entries are not always repeated.

B1: Nanobody N125 (1WVA25) (VHH)
VHH: QVQLQESGGGLVQPGGSLRLSCVASGFTFSRYAMTWVRQAPGKGLEWVSDISSGGSSTFYTDSVKGRFTISRDNAKNTLYLQMNSLKPDDTAIYFCAKGVPSYYSDYERRSKRYDSRGQGTQVTVSS
B2: Nanobody N27 (2WVA7) (VHH)
VHH: QVQLQESGGGLVEIGGSLRLSCAASGTLFTFNTMAWYRQAPGKQREFIATITSGGNTNYADSVQGRFTISRGNAKNTLYLQMNSLKPEDTAVYYCNARTMTGPFDYWGQGTQVTVSS
B3: Nanobody N2149 (2WVA149) (VHH)
VHH: QVQLQESGGGLVQAGGSLRLSCAVSGSIFSGNAMDWYRQAPGKQRELVASLTSTGSTNYADSVKGRFTITRDNAKNTVYLQMNSLKPEDTAVYYCHALIYRSRLDLAPGNYWGQGTQVTVSS

Tests used:
[1] = biological target: T1, lipid nanodisc reconstituted yeast V-ATPase Vo proton channel subcomplex (VoND) (Saccharomyces cerevisiae (S288c-type …, UniProt P32563;P25515;P32842;P23968;P32366;Q3E7B6;P0C5R9;P53262)); assay: BLI
[2] = biological target: T1, lipid nanodisc reconstituted yeast …; assay: cryo-EM structure
[3] = biological target: yeast Vo proteolipid subunit c (Vma3p) (yeast (Saccharomyces cerevisiae), UniProt P25515); assay: cryo-EM structure
yeast Vo proteolipid subunit c (Vma3p), sequence (P25515 whole entry): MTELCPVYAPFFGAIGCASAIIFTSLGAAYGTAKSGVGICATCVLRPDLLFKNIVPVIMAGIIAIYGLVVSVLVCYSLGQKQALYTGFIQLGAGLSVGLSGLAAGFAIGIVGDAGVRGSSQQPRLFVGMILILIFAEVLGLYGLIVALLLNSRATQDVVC

yeast Vo subunit d = yeast Vo subunit d (yeast (Saccharomyces cerevisiae), UniProt P32366); assay: cryo-EM structure
yeast Vo subunit d, sequence (P32366 whole entry): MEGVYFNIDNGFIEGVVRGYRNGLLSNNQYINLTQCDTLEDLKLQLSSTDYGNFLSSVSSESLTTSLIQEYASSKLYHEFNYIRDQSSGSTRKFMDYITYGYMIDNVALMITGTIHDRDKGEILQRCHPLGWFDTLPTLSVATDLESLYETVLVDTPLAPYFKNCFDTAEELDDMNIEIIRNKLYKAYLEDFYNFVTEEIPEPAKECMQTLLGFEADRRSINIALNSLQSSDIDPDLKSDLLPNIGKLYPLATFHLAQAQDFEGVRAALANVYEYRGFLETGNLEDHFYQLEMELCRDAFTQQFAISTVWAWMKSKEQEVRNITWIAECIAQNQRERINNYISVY

Row | Binder | Kd [1] | stoichiometry N [2] | binding result [3] | binding result (yeast Vo subunit d)
1 | B1 | 0.013 ± 0.001 nM | 4 N125 per VoND and 3 N125 per VoND | binds | 
2 | B2 | < 0.001 nM | 8 N27 per VoND | binds | 
3 | B3 | 0.09 ± 0.023 nM |  |  | binds
